Results: PMC9225624 (Autophagy, 2021)
Where two headings read alike, the source gives them in different places.

What was measured:
GST-ATG8f [1] = target: T1, GST-ATG8f (Arabidopsis thaliana, UniProt Q8VYK7 1-117); experiment: pull-down
T1 sequence (looked up): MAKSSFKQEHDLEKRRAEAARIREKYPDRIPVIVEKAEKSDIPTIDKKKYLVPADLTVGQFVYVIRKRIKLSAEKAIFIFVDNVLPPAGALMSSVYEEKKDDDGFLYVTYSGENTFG

[2] = target: T2, Arabidopsis ATG8f (tag-free) (Arabidopsis thaliana, UniProt Q8VYK7 1-117); experiment: SEC
T2 sequence: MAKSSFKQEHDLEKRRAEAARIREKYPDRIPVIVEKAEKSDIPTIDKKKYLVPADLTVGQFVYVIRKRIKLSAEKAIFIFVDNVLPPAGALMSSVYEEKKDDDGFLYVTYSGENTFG

[3] = target: T2, Arabidopsis ATG8f (tag-free); experiment: pull-down
GST-ATG8f (Y26E R29E) = target: T3, GST-ATG8f (Y26E R29E) (Arabidopsis thaliana, UniProt Q8VYK7 1-117, Y26E | R29E); experiment: pull-down
T3 sequence (looked up): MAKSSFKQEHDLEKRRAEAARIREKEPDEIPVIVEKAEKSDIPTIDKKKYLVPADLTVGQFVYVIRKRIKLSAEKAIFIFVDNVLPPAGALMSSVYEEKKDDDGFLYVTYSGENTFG

GST-ATG8f R29E = target: T4, GST-ATG8f R29E (Arabidopsis thaliana, UniProt Q8VYK7 1-117, R29E); experiment: pull-down
T4 sequence (looked up): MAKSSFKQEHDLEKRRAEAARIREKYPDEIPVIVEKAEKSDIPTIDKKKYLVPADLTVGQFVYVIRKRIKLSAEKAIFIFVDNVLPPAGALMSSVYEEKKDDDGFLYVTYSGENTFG

GST-ATG8f K47E = target: T5, GST-ATG8f K47E (Arabidopsis thaliana, UniProt Q8VYK7 1-117, K47E); experiment: pull-down
T5 sequence (looked up): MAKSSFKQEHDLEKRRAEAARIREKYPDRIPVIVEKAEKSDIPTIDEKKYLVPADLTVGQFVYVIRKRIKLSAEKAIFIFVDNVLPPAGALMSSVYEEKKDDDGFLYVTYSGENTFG

GST-ATG8f Y26E = target: T6, GST-ATG8f Y26E (Arabidopsis thaliana, UniProt Q8VYK7 1-117, Y26E); experiment: pull-down
T6 sequence (looked up): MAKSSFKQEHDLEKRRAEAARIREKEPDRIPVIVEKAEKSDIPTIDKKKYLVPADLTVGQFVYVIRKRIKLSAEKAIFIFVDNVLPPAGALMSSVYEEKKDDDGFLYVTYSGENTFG

GST-ATG8c = target: T7, GST-ATG8c (Arabidopsis thaliana, UniProt Q8S927 1-119); experiment: pull-down
T7 sequence (looked up): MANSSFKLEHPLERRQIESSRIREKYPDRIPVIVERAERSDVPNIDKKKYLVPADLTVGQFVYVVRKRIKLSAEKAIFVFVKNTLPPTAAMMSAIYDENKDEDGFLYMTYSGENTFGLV

GST-ATG8h = target: T8, GST-ATG8h (Arabidopsis thaliana, UniProt Q8S925 1-119); experiment: pull-down
T8 sequence (looked up): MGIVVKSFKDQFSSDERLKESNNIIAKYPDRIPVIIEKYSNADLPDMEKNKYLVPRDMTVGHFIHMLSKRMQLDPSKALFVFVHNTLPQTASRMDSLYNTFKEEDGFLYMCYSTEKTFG

GST-ATG8i = target: T9, GST-ATG8i (Arabidopsis thaliana, UniProt Q9LRP7 1-115); experiment: pull-down
T9 sequence (looked up): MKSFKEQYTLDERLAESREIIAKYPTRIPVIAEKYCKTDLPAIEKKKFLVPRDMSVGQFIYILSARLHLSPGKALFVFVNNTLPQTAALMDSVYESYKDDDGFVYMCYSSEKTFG

GST-ATG8f [4] = target: T1, GST-ATG8f; experiment: pull-down; remark: listed apart in the source
GST-ATG8g = target: T10, GST-ATG8g (Arabidopsis thaliana, UniProt Q9LZZ9 1-117); experiment: pull-down
T10 sequence (looked up): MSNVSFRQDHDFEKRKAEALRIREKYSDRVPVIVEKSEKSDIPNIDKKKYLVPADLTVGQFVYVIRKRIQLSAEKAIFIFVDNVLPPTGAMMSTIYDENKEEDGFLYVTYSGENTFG

GST-ATG8a = target: T11, GST-ATG8a (Arabidopsis thaliana, UniProt Q8LEM4 1-117); experiment: pull-down
T11 sequence (looked up): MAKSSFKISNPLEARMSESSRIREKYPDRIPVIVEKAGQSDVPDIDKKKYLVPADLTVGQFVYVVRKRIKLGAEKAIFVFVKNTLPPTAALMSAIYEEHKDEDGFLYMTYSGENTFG

GST-ATG8d = target: T12, GST-ATG8d (Arabidopsis thaliana, UniProt Q9SL04 1-120); experiment: pull-down
T12 sequence (looked up): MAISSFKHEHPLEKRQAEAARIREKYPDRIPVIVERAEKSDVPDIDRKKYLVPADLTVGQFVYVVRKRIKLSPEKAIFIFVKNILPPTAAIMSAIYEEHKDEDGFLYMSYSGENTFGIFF

GST-ATG8b = target: T13, GST-ATG8b (Arabidopsis thaliana, UniProt Q9XEB5 1-117); experiment: pull-down
T13 sequence (looked up): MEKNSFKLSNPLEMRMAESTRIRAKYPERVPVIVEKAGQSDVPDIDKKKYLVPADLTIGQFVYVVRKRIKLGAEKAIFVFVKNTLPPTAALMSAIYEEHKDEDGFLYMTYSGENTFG

GST-ATG8e = target: T14, GST-ATG8e (Arabidopsis thaliana, UniProt Q8S926 1-118); experiment: pull-down
T14 sequence (looked up): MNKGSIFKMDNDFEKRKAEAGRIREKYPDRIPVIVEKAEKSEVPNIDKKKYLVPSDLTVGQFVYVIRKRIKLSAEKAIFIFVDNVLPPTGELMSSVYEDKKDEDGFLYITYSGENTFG

Measured: binding result

B1: UBA domain (619-704 aa) of NBR1 (domain or fragment, Arabidopsis thaliana, UniProt Q9SB64 619-704, looked up)
chain: EITMLKELEEMGFKEIDLNKEILRDNEYNLEQSVDALCGVSEWDPILEELQEMGFCDDVTNKRLLKKNNGSIKGVVMDLLTGEKEA
binds: GST-ATG8f [1] | [2]

GVSEWDPILEE [NBR1 AIM peptide (657-667 aa)]
binds: [3]

B2: SH3 domain of SH3P2, SH3P2 (279-368) (domain or fragment, Arabidopsis thaliana, UniProt Q8VWF1 279-368, looked up)
chain: SYEEANGVFASQMHDTSTDSMGYFLGEVLFPYHGVTDVELSLSTGEYVVVRKVTGSGWAEGECKGKAGWFPYGYIERRERVLASKVSEVF
not listed: GST-ATG8f [1] | [3]
binds: all other assays above
